Reference: the supplement of paper PMC7877785
± gives the uncertainty stated by the source.

Experiment: self-splicing fitness, log relative to wild type (ln ratio); higher = more splicing; Tetrahymena group I intron in knt gene, E. coli kanamycin selection, DiMSum; sequences stand for … in CUCUCU…GGAGGGAAAAGUUAUCAGGCAUGCACCUGGUAGCUAGUCUUUAAACCAAUAGAUUGCAUCGGUUUAAAAGGCAAGACCGUCAAAUUGCGGGAAAGGGGUCAACAGCCGUUCAGUACCAAGUCUCAGGGGAAACUUUGAGAUGGCCUUGCAAAGGGUAUGGUAAUAAGCUGACGGACAUGGUCCUAACCACGCAGCCAAGUCCUAAGUCAACAGAUCUUCUGUUGAUAUGGAUGCAGUUCACAGACUAAAUGUCGGUCGGGGAAGAUGUAUUCUUCUCAUAAGAUAUAGUCGGACCUCUCCUUAAUGGGAGCUAGCGGAUGAAGUGAUGCAACACUGGAGCCGCUGGGAACUAAUUUGUAUGCGAAAGUAUAUUGAUUAGUUUUGGAGUACUCGUGGUCG
Summary of the method: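 A randomised library covering all eight P1ex-region intron nucleotides was built with the intron in the knt kanamycin-resistance gene on pET-22b(+) and held in E. coli BL21(DE3). Cells were grown overnight at 37°C or 30°C on LB agar, with or without 25 μg/mL kanamycin, plus 100 μg/mL carbenicillin, 50 μM IPTG and 0.2% rhamnose, and pooled colonies were amplicon-sequenced on an Illumina HiSeq 2500. DiMSum fitness is the error-weighted combination of wild-type-normalised replicate fold changes, kanamycin versus none.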

Sequence: CCUUAGCAAUAUUACGAGGU
- self-splicing fitness (ln) (30 °C): -4.03 ± 0.15
- self-splicing fitness (ln) (37 °C): -2.52 ± 0.15

Sequence: GGCGAGCAAUAUUACGAUGU
- self-splicing fitness (ln) (30 °C): -3.69 ± 0.32
- self-splicing fitness (ln) (37 °C): -1.53 ± 0.2

Sequence: UAUAAGCAAUAUUACGGUCU
- self-splicing fitness (ln) (30 °C): -1.22 ± 0.13
- self-splicing fitness (ln) (37 °C): -1.05 ± 0.17

Sequence: UAAGAGCAAUAUUACGUACA
- self-splicing fitness (ln) (30 °C): -2.95 ± 0.37
- self-splicing fitness (ln) (37 °C): -1.59 ± 0.4

Sequence: UACUAGCAAUAUUACGGAAG
- self-splicing fitness (ln) (30 °C): -3.07 ± 0.26
- self-splicing fitness (ln) (37 °C): -2.91 ± 0.43

Sequence: CAGCAGCAAUAUUACGUGUA
- self-splicing fitness (ln) (30 °C): -2.97 ± 0.078
- self-splicing fitness (ln) (37 °C): -1.65 ± 0.072

Sequence: CACUAGCAAUAUUACGCGUU
- self-splicing fitness (ln) (30 °C): -2.86 ± 0.13
- self-splicing fitness (ln) (37 °C): -0.877 ± 0.11

Sequence: UGAGAGCAAUAUUACGGCUU
- self-splicing fitness (ln) (30 °C): -4.13 ± 0.42

Sequence: GUGAAGCAAUAUUACGUAUU
- self-splicing fitness (ln) (30 °C): -1.21 ± 0.12
- self-splicing fitness (ln) (37 °C): 0.0695 ± 0.12

Sequence: AUUGAGCAAUAUUACGCAAC
- self-splicing fitness (ln) (30 °C): -3.42 ± 0.26
- self-splicing fitness (ln) (37 °C): -2.26 ± 0.39

Sequence: CCAAAGCAAUAUUACGGAAC
- self-splicing fitness (ln) (37 °C): -2.53 ± 0.36

Sequence: CAUGAGCAAUAUUACGUACA
- self-splicing fitness (ln) (30 °C): -3.1 ± 0.22
- self-splicing fitness (ln) (37 °C): -2.17 ± 0.3

Sequence: AUUGAGCAAUAUUACGCCGU
- self-splicing fitness (ln) (37 °C): -2.56 ± 0.49

Sequence: GAUGAGCAAUAUUACGAGAG
- self-splicing fitness (ln) (37 °C): -3.01 ± 0.29

Sequence: UUAGAGCAAUAUUACGUAUA
- self-splicing fitness (ln) (30 °C): -3.64 ± 0.43
- self-splicing fitness (ln) (37 °C): -0.846 ± 0.27

Sequence: CGAGAGCAAUAUUACGAACA
- self-splicing fitness (ln) (30 °C): -2.54 ± 0.3
- self-splicing fitness (ln) (37 °C): -2.84 ± 0.41

Sequence: CUUCAGCAAUAUUACGUAGG
- self-splicing fitness (ln) (30 °C): -1.49 ± 0.1
- self-splicing fitness (ln) (37 °C): -0.863 ± 0.12

Sequence: GAUUAGCAAUAUUACGUAAG
- self-splicing fitness (ln) (30 °C): -2.02 ± 0.18
- self-splicing fitness (ln) (37 °C): -0.715 ± 0.29

Sequence: CCCGAGCAAUAUUACGAGCC
- self-splicing fitness (ln) (30 °C): -2.46 ± 0.2
- self-splicing fitness (ln) (37 °C): -2.12 ± 0.28

Sequence: AAAUAGCAAUAUUACGUACG
- self-splicing fitness (ln) (30 °C): -1.1 ± 0.11
- self-splicing fitness (ln) (37 °C): -1.16 ± 0.13

Sequence: CUACAGCAAUAUUACGUUAG
- self-splicing fitness (ln) (30 °C): -3.78 ± 0.23
- self-splicing fitness (ln) (37 °C): -2.54 ± 0.14

Sequence: AGAUAGCAAUAUUACGGCGC
- self-splicing fitness (ln) (30 °C): -1.32 ± 0.14
- self-splicing fitness (ln) (37 °C): -0.0937 ± 0.15

Sequence: AAACAGCAAUAUUACGGAAC
- self-splicing fitness (ln) (30 °C): -3.5 ± 0.16
- self-splicing fitness (ln) (37 °C): -4.05 ± 0.28

Sequence: GCGGAGCAAUAUUACGAUCU
- self-splicing fitness (ln) (30 °C): -1.97 ± 0.25
- self-splicing fitness (ln) (37 °C): -0.0473 ± 0.33

Sequence: UUAUAGCAAUAUUACGUUUC
- self-splicing fitness (ln) (30 °C): -4.48 ± 0.3
- self-splicing fitness (ln) (37 °C): -3.31 ± 0.32

Sequence: AGACAGCAAUAUUACGGUCG
- self-splicing fitness (ln) (30 °C): -1.02 ± 0.093
- self-splicing fitness (ln) (37 °C): -0.102 ± 0.12

Sequence: CUUCAGCAAUAUUACGAAAC
- self-splicing fitness (ln) (30 °C): -0.955 ± 0.5

Sequence: UUAAAGCAAUAUUACGCGGG
- self-splicing fitness (ln) (30 °C): -0.482 ± 0.11
- self-splicing fitness (ln) (37 °C): -1.29 ± 0.13

Sequence: UUCCAGCAAUAUUACGCCGA
- self-splicing fitness (ln) (30 °C): -0.126 ± 0.13
- self-splicing fitness (ln) (37 °C): 0.309 ± 0.16

Sequence: AGGUAGCAAUAUUACGUUCA
- self-splicing fitness (ln) (30 °C): -0.556 ± 0.014
- self-splicing fitness (ln) (37 °C): -0.256 ± 0.033

Sequence: AUGAAGCAAUAUUACGAAGC
- self-splicing fitness (ln) (30 °C): -3.46 ± 0.18
- self-splicing fitness (ln) (37 °C): -1.89 ± 0.19

Sequence: GAUCAGCAAUAUUACGCGGU
- self-splicing fitness (ln) (30 °C): -2.98 ± 0.16
- self-splicing fitness (ln) (37 °C): -1.85 ± 0.24

Sequence: GAGAAGCAAUAUUACGAACC
- self-splicing fitness (ln) (30 °C): -0.324 ± 0.14
- self-splicing fitness (ln) (37 °C): -0.188 ± 0.22

Sequence: CUUUAGCAAUAUUACGACUU
- self-splicing fitness (ln) (37 °C): -3.6 ± 0.46

Sequence: CUUUAGCAAUAUUACGGAAA
- self-splicing fitness (ln) (37 °C): -2.01 ± 0.27

Sequence: CUUAAGCAAUAUUACGUGGG
- self-splicing fitness (ln) (30 °C): -4.03 ± 0.17
- self-splicing fitness (ln) (37 °C): -2.26 ± 0.12

Sequence: UAUUAGCAAUAUUACGAGUC
- self-splicing fitness (ln) (30 °C): -3.35 ± 0.48

Sequence: AAGGAGCAAUAUUACGCAGU
- self-splicing fitness (ln) (30 °C): -3.65 ± 0.43
- self-splicing fitness (ln) (37 °C): -1.38 ± 0.19

Sequence: CCCAAGCAAUAUUACGUUUC
- self-splicing fitness (ln) (30 °C): -3.63 ± 0.16
- self-splicing fitness (ln) (37 °C): -2.76 ± 0.15

Sequence: UUGUAGCAAUAUUACGCCUG
- self-splicing fitness (ln) (30 °C): 0.32 ± 0.14
- self-splicing fitness (ln) (37 °C): 0.399 ± 0.15
